B2: recombinant ZHD5-MBP fusion protein (natural protein)
chain: MDMRSHEMIERRREDNGNNNGGVVISNIISTNIDDNCNGNNNNTRVSCNSQTLDHHQSKSPSSFSISAAAKPTVRYRECLKNHAASVGGSVHDGCGEFMPSGEEGTIEALRCAACDCHRNFHRKEMDGVGSSDLISHHRHHHYHHNQYGGGGGRRPPPPNMMLNPLMLPPPPNYQPIHHHKYGMSPPGGGGMVTPMSVAYGGGGGGAESSSEDLNLYGQSSGEGAGAAAGQMAFSMSSSKKRFRTKFTTDQKERMMDFAEKLGWRMNKQDEEELKRFCGEIGVKRQVFKVWMHNNKNNAKKPPTPTTTL

The target in one data set is T1, ZHD5-MBP (UniProt Q9FRL5 1-309).
T1 sequence: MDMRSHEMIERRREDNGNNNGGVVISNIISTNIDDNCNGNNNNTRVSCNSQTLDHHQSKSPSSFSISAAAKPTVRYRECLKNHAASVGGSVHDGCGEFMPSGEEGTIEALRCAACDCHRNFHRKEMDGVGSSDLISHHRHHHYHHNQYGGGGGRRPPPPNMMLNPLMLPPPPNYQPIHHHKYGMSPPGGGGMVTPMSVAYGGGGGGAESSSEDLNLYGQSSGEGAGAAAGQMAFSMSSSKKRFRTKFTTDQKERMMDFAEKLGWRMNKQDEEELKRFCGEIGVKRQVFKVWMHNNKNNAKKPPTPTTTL
Put plainly: EMSA.

The data set “native gel or EMSA” concerns the molecule itself. Put plainly: native gel or EMSA.
Data set [1] addresses B2. Put plainly: native gel or EMSA. A general note: In EMSA bound probe runs differently from free probe, usually more slowly.

The source of these data is paper PMC3020774 (The Journal of Biological Chemistry, 2010).

B1: ATTA EMSA probe (dsDNA)
DNA 1: CAGTGTCTTGTAATTAAAAA
DNA 2: TTTTTAATTACAAGACACTG
Turning to B1, the binding result in the data set with ZHD5-MBP is given as “binds”.

B2: the binding result in the data set “native gel or EMSA” is reported as “binds”.

B3: recombinant MIF1-GST fusion protein (natural protein)
chain: MMKKRQMVIKQRSRNSNTSSSWTTTSSSSSSSEISNVRYVECQKNHAANIGGYAVDGCREFMAAGVEGTVDALRCAACGCHRNFHRKEVDTEVVCEYSPPNA
With B3, the binding result in data set [1] is “binds”.
